In test [1] the target is T1, fusion protein of human CD79B extracellular domain (ECD) and His tag (human, UniProt P40259 29-159).
T1 construct: also called human CD79B ECD-His; Human CD79B-His protein
T1 sequence: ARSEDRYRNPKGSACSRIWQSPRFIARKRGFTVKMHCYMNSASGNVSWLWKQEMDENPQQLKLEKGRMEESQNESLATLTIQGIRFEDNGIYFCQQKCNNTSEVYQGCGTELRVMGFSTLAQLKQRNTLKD
Briefly: ELISA on Human CD79B-His protein. On the technique in general: ELISA stands for enzyme-linked immunosorbent assay.

In test [2] the target is T1, fusion protein of human CD79B …. Put plainly: SPR, Human CD79B-His protein.
Test [3] concerns the target T2, human CD79B on the surface of cells (DoHH2 / DOHH-2, WSU-DLCL2) (human, UniProt P40259 29-229).
T2 construct: whole, on cells; also called CD79B protein on the surface of DoHH2 cells; DoHH2 cell
T2 sequence (looked up): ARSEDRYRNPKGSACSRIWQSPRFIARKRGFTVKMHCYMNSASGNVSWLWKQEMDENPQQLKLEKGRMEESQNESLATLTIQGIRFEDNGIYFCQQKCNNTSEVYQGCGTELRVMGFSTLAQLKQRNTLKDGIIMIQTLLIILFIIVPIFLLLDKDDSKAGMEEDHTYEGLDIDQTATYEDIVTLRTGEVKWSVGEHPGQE
Briefly: FACS on DoHH2 cells.

Test [4] has as its target T2, human CD79B on the surface of cells …. Put plainly: cell-based or functional assay.
For test [5] the target is unchanged. Briefly: cell-based or functional assay. The source holds these as a separate data set.
Test [6] has the same target. Put plainly: FACS on DoHH2 cells. As for the experimental part:
3) Assay on anti-human CD79B mouse monoclonal antibodies by FACS The cell suspension of DoHH2 cells was centrifuged, resuspended in PBS containing 0.1% BSA, and counted. 100 μL of antibody diluted in a 1:10 ratio from 100 nM was added, and the cells were incubated at room temperature for 1 h and washed three times. Then Anti-Mouse IgG (Fc specific)-FITC secondary antibody was added, and the cells were incubated at room temperature for 30 min away from the light, washed three times, gently resuspended in PBS containing 0.1% BSA, and loaded on the machine for assay.
The source holds these as a separate data set.

Test [7] concerns the target T3, human CD79B antigen (coated in the ELISA of the anti-human CD79B mouse antibodies) (human, UniProt P40259 29-159).
T3 construct: extracellular domain; The ELISA protocols only say 'antigen'
T3 sequence (looked up): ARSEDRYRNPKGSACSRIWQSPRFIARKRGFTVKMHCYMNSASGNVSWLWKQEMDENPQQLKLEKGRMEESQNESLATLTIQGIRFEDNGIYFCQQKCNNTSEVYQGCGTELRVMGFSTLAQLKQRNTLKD
Briefly: ELISA on coated human CD79B antigen. The protocol: 2) Assay on anti-human CD79B mouse monoclonal antibodies by ELISA A 96-well plate was coated with 1 μg/mL antigen at 50 μL/well and incubated in a refrigerator at 4° C. overnight. The next day, the coated antigen plate was washed once (washing solution: 1× PBST). After washing, the plate was blocked with 1% BSA blocking solution prepared in 1× PBST at 37° C. for 1 h. After washing the plate 3 times with 1× PBST, 50 μL of antibody diluted in a 1:10 ratio from 100 nM was added, and the plate was incubated in an incubator at 37° C. for 1 h. After washing the plate 3 times with 1× PBST, 100 μL of goat anti-mouse secondary antibody diluted in a 1:5000 ratio was added, and the plate was incubated in an incubator at 37° C. for 0.5 h. After washing the plate, TMB color development solutions A and B were mixed in a 1:1 ratio for color development. 15 min later, the color development reaction was stopped with 1 N hydrochloric acid. […] value was read at 450 nm on a Spectra Max M5 microplate reader.

B1: hAb017-10 (antibody, human IgG1, kappa, V domains shown)
VH: EVQLVQSGAEVKKPGASVKVSCKASGYTFTTYGINWVKQAPGQGLEWIGEIYPRSGNIYYNEKFKGKATLTADKSTSTAYMELRSLRSDDTAVYYCARGSDYDGDFAYWGQGTLVTVSS
VL: DVVMTQTPLSLPVTPGEPASISCRSSQSIVHHDGNTYLEWYLQKPGQSPQLLIYKVSNRFSGVPDRFSGSGSGTDFTLKISRVEAEDVGVYYCFQGSHVPWTFGGGTKVEIKR
notes: Humanized antibody; also called hAb017-10 humanized antibody
As to B1, the EC50 (as a rule, the concentration giving half of the maximal effect) in test [1] was 0.06 nM; in test [3], 0.55 nM. For the same molecule, the Kd (in general, the free concentration of one partner at which half of the binding sites on the other are occupied at equilibrium, for simple one-to-one binding) in test [2] was 4.3 nM.

B2: ADC-2 (antibody, human IgG1, kappa, V domains shown)
VH: EVQLVQSGAEVKKPGSSVKVSCKASGSSFSSYGINWVKQAPGQGLEWIGEIFPRSGNTYYNEKFEGRATLTADKSTSTAYMELRSLRSEDTAVYYCAKGDLGDFDYWGQGTTVTVSS
VL: DFVMTQTPLSLPVTPGEPASISCRSSQSIVHSDGNTYFEWYLQKPGQSPKLLIYKVSNRFSGVPDRFSGSGSGTDFTLKISRVEAEDVGVYYCFQGSHVPWTFGGGTKVEIKR
modifications: compound A coupled to cysteines after TCEP reduction; positions not given; compound A (Malei-PEG2-vc-PAB-MMAE) coupled to cysteines after TCEP reduction; positions not given; mean n=3.68 per antibody
notes: Antibody-drug conjugate of hAb015-10; DAR 3.68; also called hAb015-10-cys-Malei-PEG2-vc-PAB-MMAE
On to B2, for which the “Endocytosis rate (4 h), DoHH2 cells” value in test [4] was found to be 66%.

B3: ADC-8 (antibody, human IgG1, kappa, V domains shown)
VH: EVQLVESGGGLVQPGGSLRLSCAASGYTFSSYWIEWVRQAPGKGLEWIGEILPGGGDTNYNEIFKGRATFSADTSKNTAYLQMNSLRAEDTAVYYCTRRVPIRLDYWGQGTLVTVSS
VL: DIQLTQSPSSLSASVGDRVTITCKASQSVDYEGDSFLNWYQQKPGKAPKLLIYAASNLESGVPSRFSGSGSGTDFTLTISSLQPEDFATYYCQQSNEDPLTFGQGTKVEIKR
modifications: MC-VC-PAB-MMAE coupled to cysteines after TCEP reduction; positions not given; MC-VC-PAB-MMAE coupled to cysteines after TCEP reduction; positions not given; mean n=3.59 per antibody
On to B3, for which, in test [4], the “Endocytosis rate (4 h), DoHH2 cells” value was 76%. In addition, in test [5], the “IC50 of in vitro proliferation, DoHH2 cells (MTT, 72 h)” value is 0.0806 µg/mL and the “IC50 of in vitro proliferation, WSU-DLCL2 cells (MTT, 72 h)” value was found to be 0.117 µg/mL.

B4: SN8 (antibody, human IgG1, kappa, V domains shown)
VH: EVQLVESGGGLVQPGGSLRLSCAASGYTFSSYWIEWVRQAPGKGLEWIGEILPGGGDTNYNEIFKGRATFSADTSKNTAYLQMNSLRAEDTAVYYCTRRVPIRLDYWGQGTLVTVSS
VL: DIQLTQSPSSLSASVGDRVTITCKASQSVDYEGDSFLNWYQQKPGKAPKLLIYAASNLESGVPSRFSGSGSGTDFTLTISSLQPEDFATYYCQQSNEDPLTFGQGTKVEIKR
notes: also called positive control antibody; the antibody in Polivy (polatuzumab vedotin)
Take B4: in test [6], the concentration for a half-maximal effect (EC50 (read off the curve)) (commonly the concentration needed to bring the measured effect to its halfway point) is about 0.09 µg/mL.

B5: mAb015 (antibody, V domains shown)
VH: QVQLQQSGAELARPGASVKLSCKASGSSFTSYGINWVKQRTGQGLEWIGEIFPRSGNTYYNEKFEGKATLTADKSSSTAYMELRSLTSEDSAVYFCAKGDLGDFDYWGQGTTLTVSS
VL: DFLMTQTPLSLPVRLGDQASISCRSSQSIVHSDGNTYFEWYLQKPGQSPKLLIYKVSNRFSGVPDRFSGSGSGTDFTLKISRVEAEDLGVYYCFQGSHVPWTFGGGTKLEIK
notes: Mouse monoclonal antibody from hybridoma; also called 83B2G2
For the molecule B5, the “EC50 (read off the curve)” value was about 0.03 µg/mL in test [6] and 0.1 to 0.2 nM in test [7].

B6: mAb017 (antibody, V domains shown)
VH: QVQLQQSGAELARPGASVKLSCKASGYTFTTYGINWVKQRTGQGLEWIGEIYPRSGNIYYNEKFKGKATLTADKSSSTAYMELRSLTSEDSAVYFCARGSDYDGDFAYWGQGTLVTVSA
VL: DVLMTQTPLSLPVSLGDQASISCRSSQSIVHHDGNTYLEWYLQKPGQSPKLLIYKVSNRFSGVPDRFSGSGSGTDFTLKISRVEAEDLGVYYCFQGSHVPWTFGGGTQLEIK
notes: Mouse monoclonal antibody from hybridoma; also called 86F11F6
Consider B6, for which the 50% effective concentration (EC50 (read off the curve)) in test [6] is about 0.02 µg/mL; in test [7], 0.1 to 0.2 nM.

B7: mAb016 (antibody, V domains shown)
VH: QVQLQQSGAELARPGASVKLSCKASGYIFTNYGIIWVKQRTGQGLEWIGDIFPGSGNTYYNENFKGKATLTADKSSSTAYMELRSLTSEDSAVYFCSRGELGDFDYWGQGTTLTVSS
VL: VVLMTQTPLSLPVSLGDQASISCRSSQNIVHSDGTTYLEWYLQKPGQSPKLLIYKVSNRFSGVPDRFSGSGSGTDFTLKISRVEAEDLGIYYCFQGSHVPWTFGGGTKLEIK
As to B7, the 50% effective concentration (EC50 (read off the curve)) is about 0.02 µg/mL in test [6] and 0.1 to 0.2 nM in test [7].

These data come from patent publication US20260248946A1 (TUOJIE BIOTECH SHANGHAI, published 2026).
